Data set [1] deals with T1, TBPcore (UniProt P13393 61-240).
T1 sequence: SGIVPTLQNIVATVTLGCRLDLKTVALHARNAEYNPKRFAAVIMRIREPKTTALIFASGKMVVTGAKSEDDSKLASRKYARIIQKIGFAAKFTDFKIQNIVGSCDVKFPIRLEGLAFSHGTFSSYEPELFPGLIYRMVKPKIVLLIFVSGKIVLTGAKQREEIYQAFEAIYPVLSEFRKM
Description: EMSA; GAE region not sufficient for binding; EMSA: 3 nM DNA, 300 nM TBPcore, 3 uM TFIIB, 4 mM Tris-HCl pH 8.0, 60 mM KCl, 5 mM MgCl2, 4% glycerol, 1 mM DTT, 100 ug/ml BSA, 0.1% Tween 20, 50 ug/ml heparin. The conditions noted are these: protein: recombinant; label: 5'-Cy5 on coding strand; blunt.

Data set [2] has as its target T2, TBPcore;TFIIB (Saccharomyces cerevisiae?;Saccharomyces …, UniProt P13393;P29055 61-240;1-345, |).
T2 sequence 1: T1 sequence
T2 sequence 2: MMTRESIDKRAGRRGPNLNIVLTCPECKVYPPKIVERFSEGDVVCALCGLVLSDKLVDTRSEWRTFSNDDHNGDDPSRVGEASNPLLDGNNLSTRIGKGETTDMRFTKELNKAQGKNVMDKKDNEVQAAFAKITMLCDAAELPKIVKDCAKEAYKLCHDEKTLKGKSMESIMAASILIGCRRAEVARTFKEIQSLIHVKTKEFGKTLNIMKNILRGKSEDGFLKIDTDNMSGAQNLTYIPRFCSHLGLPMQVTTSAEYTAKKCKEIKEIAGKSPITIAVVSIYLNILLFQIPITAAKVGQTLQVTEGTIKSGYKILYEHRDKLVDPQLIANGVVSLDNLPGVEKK
Described as above. The conditions noted are these: protein: recombinant;recombinant; tags: ;; copies: 1;1; label: 5'-Cy5 on coding strand; blunt.

For data set [3], the target named is T2, TBPcore;TFIIB. Description: EMSA; 300 nM TBPcore, 3 uM TFIIB, 50 ug/ml heparin; EMSA: 3 nM DNA, 300 nM TBPcore, 3 uM TFIIB, 4 mM Tris-HCl pH 8.0, 60 mM KCl, 5 mM MgCl2, 4% glycerol, 1 mM DTT, 100 ug/ml BSA, 0.1% Tween 20, 50 ug/ml heparin. The conditions noted are these: protein: recombinant;recombinant; tags: ;; copies: 1;1; label: 5'-Cy5 on coding strand; blunt.

Data set [4] concerns the target T1, TBPcore. The experiment in a line: EMSA; 300 nM TBPcore, 50 ug/ml heparin; EMSA: 3 nM DNA, 300 nM TBPcore, 3 uM TFIIB, 4 mM Tris-HCl pH 8.0, 60 mM KCl, 5 mM MgCl2, 4% glycerol, 1 mM DTT, 100 ug/ml BSA, 0.1% Tween 20, 50 ug/ml heparin. The conditions noted are these: protein: recombinant; label: 5'-Cy5 on coding strand; blunt.
Data set [5] deals with T1, TBPcore. Description: EMSA; not affected vs TMT1 (GAE); EMSA: 3 nM DNA, 300 nM TBPcore, 3 uM TFIIB, 4 mM Tris-HCl pH 8.0, 60 mM KCl, 5 mM MgCl2, 4% glycerol, 1 mM DTT, 100 ug/ml BSA, 0.1% Tween 20, 50 ug/ml heparin. The conditions noted are these: protein: recombinant; label: 5'-Cy5 on coding strand; blunt.
Data set [6] has as its target T2, TBPcore;TFIIB. Described as above. The conditions noted are these: protein: recombinant;recombinant; tags: ;; copies: 1;1; label: 5'-Cy5 on coding strand; blunt.
Data set [7] has as its target T1, TBPcore. Description: EMSA; not impaired; EMSA: 3 nM DNA, 300 nM TBPcore, 3 uM TFIIB, 4 mM Tris-HCl pH 8.0, 60 mM KCl, 5 mM MgCl2, 4% glycerol, 1 mM DTT, 100 ug/ml BSA, 0.1% Tween 20, 50 ug/ml heparin. The conditions noted are these: protein: recombinant; label: 5'-Cy5 on coding strand; blunt.
Data set [8] deals with T2, TBPcore;TFIIB. Described as above. The conditions noted are these: protein: recombinant;recombinant; tags: ;; copies: 1;1; label: 5'-Cy5 on coding strand; blunt.

Positions count from the first letter of the chain named.

B1: HIS4 (GAE) (dsDNA)
DNA 1: TAGTATACTGTGAAAGGAAAAGGAAGATATGGAACGTTAT
DNA 2: ATAACGTTCCATATCTTCCTTTTCCTTTCACAGTATACTA
Regarding B1, the binding result in the data set with TBPcore [1] and with TBPcore;TFIIB [2] was “no binding” each time.

B2: TMT1 (GAE) (dsDNA)
DNA 1: ATTTTCATTTTTAAAGGAAAAGGAATGTAACTAATTTAGT
DNA 2: ACTAAATTAGTTACATTCCTTTTCCTTTAAAAATGAAAAT
Take B2: the binding result with TBPcore;TFIIB [3] and with TBPcore [4] was “binds” in each case.

B3: TMT1 (A-12) (dsDNA)
DNA 1: B2 DNA 1 with G16A, G17A, G22A, G23A
DNA 2: B2 DNA 2 with C18T, C19T, C24T, C25T
For the molecule B3, the binding result with TBPcore [5] and in the data set with TBPcore;TFIIB [6] was “binds” each time.

B4: HIS4 (TATA) (dsDNA)
DNA 1: ACAGTAGTATACTGTGTATATAATAGATATGGAACGTTAT
DNA 2: ATAACGTTCCATATCTATTATATACACAGTATACTACTGT
With B4, the binding result in the data set with TBPcore;TFIIB [3] and with TBPcore [4] was “binds” throughout.

B5: TMT1 (TATA) (dsDNA)
DNA 1: ATTTTCATTTTTTATATAATATGTAACTAATTTAGT
DNA 2: ACTAAATTAGTTACATATTATATAAAAAATGAAAAT
In the case of B5, the binding result in the data set with TBPcore [7] and with TBPcore;TFIIB [8] was “binds” throughout.
